From the supplement of paper PMC10065799, “High-throughput profiling of sequence recognition by tyrosine kinases and SH2 domains using bacterial peptide display” (eLife, 2023)

Tests used:
Hck = Hck (UniProt P08631); assay: phosphorylation enrichment, bacterial display (enrichment ratio); higher = better substrate or ligand; peptides without Tyr show the background
MERTK = MERTK (UniProt Q12866); assay: as above
FGFR3 = FGFR3 (UniProt P22607); assay: as above
Fes = Fes (UniProt P07332); assay: as above
Fes, sequence (P07332 whole entry, looked up): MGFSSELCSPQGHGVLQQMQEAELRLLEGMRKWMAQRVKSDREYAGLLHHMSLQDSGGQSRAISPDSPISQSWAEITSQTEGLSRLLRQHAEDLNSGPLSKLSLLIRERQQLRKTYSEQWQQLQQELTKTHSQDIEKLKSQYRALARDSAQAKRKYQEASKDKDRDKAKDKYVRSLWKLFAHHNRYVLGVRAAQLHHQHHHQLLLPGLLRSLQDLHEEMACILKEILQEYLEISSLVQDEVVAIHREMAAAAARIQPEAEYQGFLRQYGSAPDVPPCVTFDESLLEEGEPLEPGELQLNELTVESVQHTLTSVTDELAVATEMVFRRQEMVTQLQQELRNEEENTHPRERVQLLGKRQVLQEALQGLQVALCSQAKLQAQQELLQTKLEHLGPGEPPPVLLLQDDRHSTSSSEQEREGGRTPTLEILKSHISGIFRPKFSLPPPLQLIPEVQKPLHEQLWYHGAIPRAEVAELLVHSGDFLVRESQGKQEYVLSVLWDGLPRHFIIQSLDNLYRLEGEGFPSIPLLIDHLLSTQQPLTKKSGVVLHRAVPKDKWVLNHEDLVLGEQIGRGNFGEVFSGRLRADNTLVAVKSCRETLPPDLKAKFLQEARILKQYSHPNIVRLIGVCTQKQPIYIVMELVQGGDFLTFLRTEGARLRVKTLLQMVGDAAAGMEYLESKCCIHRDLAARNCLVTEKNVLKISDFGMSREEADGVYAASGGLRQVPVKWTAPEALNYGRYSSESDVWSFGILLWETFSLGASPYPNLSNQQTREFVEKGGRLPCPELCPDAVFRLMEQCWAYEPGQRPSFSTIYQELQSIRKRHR

Fer (mouse) = assay: as above
FGFR1 = FGFR1 (UniProt P11362); assay: as above
FGFR1, sequence (P11362 whole entry, looked up): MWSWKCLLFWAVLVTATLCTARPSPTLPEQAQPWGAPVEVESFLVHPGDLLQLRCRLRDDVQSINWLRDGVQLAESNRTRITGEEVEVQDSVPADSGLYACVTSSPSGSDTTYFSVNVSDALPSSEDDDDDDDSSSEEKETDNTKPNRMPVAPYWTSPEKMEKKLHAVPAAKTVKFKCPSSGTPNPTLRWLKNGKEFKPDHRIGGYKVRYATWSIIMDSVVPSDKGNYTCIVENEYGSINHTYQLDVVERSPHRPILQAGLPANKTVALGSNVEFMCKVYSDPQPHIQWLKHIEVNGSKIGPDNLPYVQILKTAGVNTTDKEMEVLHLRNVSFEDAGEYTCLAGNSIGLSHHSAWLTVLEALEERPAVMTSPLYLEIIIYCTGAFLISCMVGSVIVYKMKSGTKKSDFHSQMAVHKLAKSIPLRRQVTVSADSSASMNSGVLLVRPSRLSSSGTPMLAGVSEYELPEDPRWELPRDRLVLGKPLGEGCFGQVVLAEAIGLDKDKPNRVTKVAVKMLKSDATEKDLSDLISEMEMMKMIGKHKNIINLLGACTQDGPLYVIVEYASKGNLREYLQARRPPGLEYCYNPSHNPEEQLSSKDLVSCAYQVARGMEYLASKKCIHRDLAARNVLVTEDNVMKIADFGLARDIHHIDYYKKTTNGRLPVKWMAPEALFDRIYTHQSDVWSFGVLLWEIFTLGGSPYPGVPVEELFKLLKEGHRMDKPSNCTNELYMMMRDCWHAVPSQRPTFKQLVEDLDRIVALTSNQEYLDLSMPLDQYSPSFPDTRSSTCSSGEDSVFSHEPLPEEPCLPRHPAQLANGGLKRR

c-Abl (mouse) = assay: as above
AncSZ = assay: as above
c-Src = assay: as above
EPHB2 = EPHB2 (UniProt P29323); assay: as above
EPHB2, sequence (P29323 whole entry, looked up): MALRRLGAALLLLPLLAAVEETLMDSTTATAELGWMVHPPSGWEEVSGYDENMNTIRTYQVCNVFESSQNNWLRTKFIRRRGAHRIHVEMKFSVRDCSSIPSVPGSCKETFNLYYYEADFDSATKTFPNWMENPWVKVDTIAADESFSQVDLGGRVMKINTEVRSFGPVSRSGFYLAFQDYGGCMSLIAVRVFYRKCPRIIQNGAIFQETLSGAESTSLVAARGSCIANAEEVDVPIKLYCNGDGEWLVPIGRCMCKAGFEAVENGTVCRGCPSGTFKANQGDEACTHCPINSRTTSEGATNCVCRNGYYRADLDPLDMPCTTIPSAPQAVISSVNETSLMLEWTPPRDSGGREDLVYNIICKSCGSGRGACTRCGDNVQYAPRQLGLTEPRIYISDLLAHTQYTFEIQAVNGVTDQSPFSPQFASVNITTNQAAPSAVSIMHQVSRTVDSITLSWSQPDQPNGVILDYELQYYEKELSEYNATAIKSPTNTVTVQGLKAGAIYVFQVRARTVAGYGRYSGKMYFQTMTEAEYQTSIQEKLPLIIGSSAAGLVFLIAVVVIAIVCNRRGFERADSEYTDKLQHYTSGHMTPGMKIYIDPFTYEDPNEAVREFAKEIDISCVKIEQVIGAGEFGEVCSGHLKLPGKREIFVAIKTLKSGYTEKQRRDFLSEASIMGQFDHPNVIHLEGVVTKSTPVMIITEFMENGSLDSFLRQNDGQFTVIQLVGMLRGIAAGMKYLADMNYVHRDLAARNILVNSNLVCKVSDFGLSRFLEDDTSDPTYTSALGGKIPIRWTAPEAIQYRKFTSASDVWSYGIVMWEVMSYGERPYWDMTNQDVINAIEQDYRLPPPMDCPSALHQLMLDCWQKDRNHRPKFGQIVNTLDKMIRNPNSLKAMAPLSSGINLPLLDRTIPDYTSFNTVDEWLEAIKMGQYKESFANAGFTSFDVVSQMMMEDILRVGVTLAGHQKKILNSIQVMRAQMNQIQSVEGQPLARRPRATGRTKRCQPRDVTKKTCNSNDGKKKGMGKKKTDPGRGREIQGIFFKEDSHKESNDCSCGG

Jak2 = Jak2 (UniProt O60674); assay: as above
Jak2, sequence (O60674 whole entry, looked up): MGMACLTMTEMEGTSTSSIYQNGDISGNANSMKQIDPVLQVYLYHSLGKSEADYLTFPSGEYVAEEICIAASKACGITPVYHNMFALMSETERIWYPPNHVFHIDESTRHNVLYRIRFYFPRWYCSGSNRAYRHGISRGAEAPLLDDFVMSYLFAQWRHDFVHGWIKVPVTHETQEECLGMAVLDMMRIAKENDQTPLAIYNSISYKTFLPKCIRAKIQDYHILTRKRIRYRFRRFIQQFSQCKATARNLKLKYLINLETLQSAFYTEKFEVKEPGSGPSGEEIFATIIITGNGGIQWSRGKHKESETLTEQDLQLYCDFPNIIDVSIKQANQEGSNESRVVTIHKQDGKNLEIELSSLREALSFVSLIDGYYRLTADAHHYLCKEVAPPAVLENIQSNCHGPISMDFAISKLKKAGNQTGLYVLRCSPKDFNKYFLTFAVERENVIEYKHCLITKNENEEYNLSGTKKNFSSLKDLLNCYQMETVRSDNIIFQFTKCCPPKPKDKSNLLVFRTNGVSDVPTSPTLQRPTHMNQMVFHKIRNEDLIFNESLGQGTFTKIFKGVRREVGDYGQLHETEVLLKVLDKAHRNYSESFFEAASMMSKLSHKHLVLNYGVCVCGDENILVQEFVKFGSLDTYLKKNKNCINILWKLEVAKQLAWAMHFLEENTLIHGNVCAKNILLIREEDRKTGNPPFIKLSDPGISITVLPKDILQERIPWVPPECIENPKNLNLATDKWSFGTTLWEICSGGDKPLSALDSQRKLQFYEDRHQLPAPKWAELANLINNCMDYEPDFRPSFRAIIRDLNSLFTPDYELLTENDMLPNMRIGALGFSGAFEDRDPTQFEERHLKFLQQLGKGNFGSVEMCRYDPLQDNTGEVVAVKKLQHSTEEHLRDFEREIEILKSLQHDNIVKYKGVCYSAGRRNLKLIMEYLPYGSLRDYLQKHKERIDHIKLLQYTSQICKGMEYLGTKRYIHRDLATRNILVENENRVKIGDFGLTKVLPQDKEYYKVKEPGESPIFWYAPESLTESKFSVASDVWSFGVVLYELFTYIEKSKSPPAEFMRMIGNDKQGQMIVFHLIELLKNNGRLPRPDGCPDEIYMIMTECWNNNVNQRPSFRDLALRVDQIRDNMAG

EPHB1 = EPHB1 (UniProt P54762); assay: as above
Fyn = Fyn (UniProt P06241); assay: as above
SHP2-C SH2 = assay: SH2 binding enrichment of the phosphorylated peptide, bacterial display (enrichment ratio); higher = better substrate or ligand; peptides without Tyr show the background
Grb2 SH2 = Grb2 SH2 (UniProt P62993); assay: as above
c-Src SH2 = assay: as above
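Throughout, for SH2 binding enrichment of the phosphorylated peptide, bacterial display: peptide library displayed on the E. coli surface as eCPX fusions, selected cells deep-sequenced, score is each peptide's frequency after selection divided by its frequency in the input.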
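Throughout, for phosphorylation enrichment, bacterial display: 11-residue human phosphosite peptides and single-mutation variants displayed on the E. coli surface, counted by deep sequencing, each peptide's frequency after selection divided by its frequency in the unselected input library; frequency after pTyr selection over input frequency; kinase dosed for 20-30% of maximal phosphorylation in three min.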

MERTK, sequence (Q12866 whole entry, looked up): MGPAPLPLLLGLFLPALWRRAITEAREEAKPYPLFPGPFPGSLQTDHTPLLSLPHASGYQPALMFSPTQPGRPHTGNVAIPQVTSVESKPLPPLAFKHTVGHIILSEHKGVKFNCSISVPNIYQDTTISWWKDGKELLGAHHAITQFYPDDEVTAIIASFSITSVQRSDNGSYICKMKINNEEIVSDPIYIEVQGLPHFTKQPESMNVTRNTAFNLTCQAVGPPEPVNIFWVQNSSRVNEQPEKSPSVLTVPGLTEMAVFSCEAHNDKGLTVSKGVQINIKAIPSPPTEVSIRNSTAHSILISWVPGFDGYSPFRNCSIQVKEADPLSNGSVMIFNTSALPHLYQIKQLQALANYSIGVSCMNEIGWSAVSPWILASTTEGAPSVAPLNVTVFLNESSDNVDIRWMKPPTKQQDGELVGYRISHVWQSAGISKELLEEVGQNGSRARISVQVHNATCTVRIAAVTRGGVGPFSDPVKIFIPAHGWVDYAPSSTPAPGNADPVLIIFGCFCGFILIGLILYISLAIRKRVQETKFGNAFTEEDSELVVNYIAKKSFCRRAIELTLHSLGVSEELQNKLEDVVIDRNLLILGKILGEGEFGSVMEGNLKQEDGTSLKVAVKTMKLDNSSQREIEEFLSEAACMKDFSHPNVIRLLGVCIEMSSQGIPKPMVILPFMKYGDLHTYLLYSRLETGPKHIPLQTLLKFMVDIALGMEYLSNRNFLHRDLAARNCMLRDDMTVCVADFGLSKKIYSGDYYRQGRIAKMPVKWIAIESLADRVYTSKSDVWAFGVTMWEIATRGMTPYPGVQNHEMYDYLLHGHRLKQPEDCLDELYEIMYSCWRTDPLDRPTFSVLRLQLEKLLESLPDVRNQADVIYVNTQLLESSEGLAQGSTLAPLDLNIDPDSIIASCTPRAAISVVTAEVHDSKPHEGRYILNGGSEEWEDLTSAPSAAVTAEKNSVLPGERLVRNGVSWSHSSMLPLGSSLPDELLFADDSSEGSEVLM

SH2 binding enrichment (SHP2-C SH2) | SH2 binding enrichment (Grb2 SH2) | SH2 binding enrichment (c-Src SH2) | Sequence | phosphorylation enrichment (Hck) | phosphorylation enrichment (MERTK) | phosphorylation enrichment (FGFR3) | phosphorylation enrichment (Fes) | phosphorylation enrichment (Fer (mouse)) | phosphorylation enrichment (FGFR1) | phosphorylation enrichment (c-Abl (mouse)) | phosphorylation enrichment (AncSZ) | phosphorylation enrichment (c-Src) | phosphorylation enrichment (EPHB2) | phosphorylation enrichment (Jak2) | phosphorylation enrichment (EPHB1) | phosphorylation enrichment (Fyn)
1.44 | 1.12 | 0.895 | KPGLIYNKVNP [SPRED3_Y72_V71I] | 2.25 | 1.07 | 0.429 | 1 | 0.803 | 0.373 | 0.857 | 0.703 | 0.975 | 0.408 | 0.722 | 0.485 | 0.738
1.7 | 1.33 | 1.21 | KPGLKYVTFGN [GALNTL5_Y404_YF] | 0.498 | 0.449 | 0.514 | 0.768 | 0.366 | 0.412 | 0.551 | 0.671 | 0.488 | 0.539 | 0.605 | 0.351 | 0.409
0.749 | 0.863 | 0.463 | KPGVNYFFRVS | 0.479 | 0.358 | 0.697 | 1.32 | 0.41 | 0.376 | 0.73 | 1.06 | 0.374 | 0.472 | 0.986 | 0.495 | 0.348
1.65 | 1.43 | 1.49 | KRELRYMHSRV [ABCD1_Y281_G277R] | 0.381 | 0.305 | 0.447 | 0.578 | 0.272 | 0.295 | 0.486 | 0.472 | 0.313 | 0.534 | 0.525 | 0.282 | 0.312
1.18 | 1.05 | 1.24 | KRFRIYHLATS [BRCA2_Y3009_YF] | 0.454 | 0.38 | 0.481 | 1.57 | 0.422 | 0.358 | 0.391 | 0.567 | 0.482 | 0.435 | 0.439 | 0.353 | 0.434
1.5 | 1.56 | 1.08 | KRGIDYILWHM [FRMD1_Y225_R228W] | 0.536 | 0.548 | 0.984 | 1.15 | 0.591 | 1.33 | 0.788 | 1.04 | 0.414 | 0.824 | 1.06 | 0.765 | 0.5
0.486 | 0.85 | 0.507 | KRLAVYIDEEA [EPM2A_Y304_P301L] | 0.496 | 0.484 | 0.837 | 1.14 | 0.524 | 0.514 | 0.781 | 1.11 | 0.578 | 0.615 | 1.23 | 0.665 | 0.601
0.709 | 0.949 | 0.711 | KRPAVYIDEEA [EPM2A_Y304] | 0.485 | 0.518 | 0.704 | 1.07 | 0.548 | 0.598 | 0.746 | 1.07 | 0.542 | 0.514 | 0.901 | 0.547 | 0.567
